# Test results from publication PMC4709657, “Construction of a subunit-fusion nitrile hydratase and discovery of an innovative metal ion transfer pattern” (Scientific Reports, 2016).
# B1: wild-type NHase (Pseudomonas putida) (protein)
# chain 1: MGQSHTHDHHHDGYQAPPEDIALRVKALESLLIEKGLVDPAAMDLVVQTYEHKVGPRNGAKVVAKAWVDPAYKARLLADATAAIAELGFSGVQGEDMVILENTPAVHNVFVCTLCSCYPWPTLGLPPAWYKAAAYRSRMVSDPRGVLAEFGLVIPANKEIRVWDTTAELRYMVLPERPGTEAYSEEQLAELVTRDSMIGTGLPTQPTPSH
# chain 2: MNGIHDTGGAHGYGPVYREPNEPVFRYDWEKTVMSLLPALLANANFNLDEFRHSIERMGPAHYLEGTYYEHWLHVFENLLVEKGVLTATEVATGKAASGKTATRVLTPAIVDDSSAPGLLRPGGGFSFFPVGDKVRVLNKNPVGHTRMPRYTRAKWGQWSSTMVCFVTPDTAAHGKGEQPQHVYTVSFTSVELWGQDASSPKDTIRVDLWDDYLEPA
# notes: tetramer alpha2beta2; EC 4.2.1.84; tag not clearly stated
# B2: NHase-(BA)P14K, fusion nitrile hydratase encoded by the gene (BA)P14K (enzyme, Pseudomonas putida NRRL-18668)
# chain: MNGIHDTGGAHGYGPVYREPNEPVFRYDWEKTVMSLLPALLANANFNLDEFRHSIERMGPAHYLEGTYYEHWLHVFENLLVEKGVLTATEVATGKAASGKTATRVLTPAIVDDSSAPGLLRPGGGFSFFPVGDKVRVLNKNPVGHTRMPRYTRAKWGQWSSTMVCFVTPDTAAHGKGEQPQHVYTVSFTSVELWGQDASSPKDTIRVDLWDDYLEPAPGMGQSHTHDHHHDGYQAPPEDIALRVKALESLLIEKGLVDPAAMDLVVQTYEHKVGPRNGAKVVAKAWVDPAYKARLLADATAAIAELGFSGVQGEDMVILENTPAVHNVFVCTLCSCYPWPTLGLPPAWYKAAAYRSRMVSDPRGVLAEFGLVIPANKEIRVWDTTAELRYMVLPERPGTEAYSEEQLAELVTRDSMIGTGLPTQPTPSH
# notes: β-subunit of the cobalt nitrile hydratase of Pseudomonas putida NRRL-18668 (B gene); MALDI-TOF indicated the full length of βα; linker, dipeptide proline-glycine; α-subunit of the cobalt nitrile hydratase of Pseudomonas putida NRRL-18668 (A gene); Same polypeptide as m1 but made with P14K co-expressed from the same plasmid; cobalt-containing (0.84 per βα); P14K is not part of the purified enzyme; …
# Columns and labels:
# [1] = target: T1, wild-type NHase (Pseudomonas putida, UniProt P97051+P97052); experiment: product tolerance: 3-cyanopyridine consumption with / without nicotinamide; assay type: biochemical; conditions: 20 mM 3-cyanopyridine, 10 min
# T1 construct: gene nthA; tetramer alpha2beta2; EC 4.2.1.84; tag not clearly stated
# T1 sequence (P97051 1-210): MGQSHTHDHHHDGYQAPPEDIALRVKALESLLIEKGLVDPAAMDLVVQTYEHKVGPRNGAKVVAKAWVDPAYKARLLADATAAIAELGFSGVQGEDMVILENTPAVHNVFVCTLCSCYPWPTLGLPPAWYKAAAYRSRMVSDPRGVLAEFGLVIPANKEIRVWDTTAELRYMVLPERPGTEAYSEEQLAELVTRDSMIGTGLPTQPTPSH
# T1 sequence (P97052 1-217): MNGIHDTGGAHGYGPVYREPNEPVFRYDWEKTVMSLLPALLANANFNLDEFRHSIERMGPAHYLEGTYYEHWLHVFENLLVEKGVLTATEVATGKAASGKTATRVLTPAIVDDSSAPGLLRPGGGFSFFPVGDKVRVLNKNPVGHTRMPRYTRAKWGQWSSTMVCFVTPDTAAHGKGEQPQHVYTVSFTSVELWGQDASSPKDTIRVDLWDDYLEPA
# [2] = target: T2, NHase-(BA)P14K (Pseudomonas putida, UniProt P97051+P97052); experiment: as above; assay type: biochemical; conditions: 20 mM 3-cyanopyridine, 10 min
# T2 construct: gene nthB; pET28a, E. coli
# T2 sequence (P97052 1-217): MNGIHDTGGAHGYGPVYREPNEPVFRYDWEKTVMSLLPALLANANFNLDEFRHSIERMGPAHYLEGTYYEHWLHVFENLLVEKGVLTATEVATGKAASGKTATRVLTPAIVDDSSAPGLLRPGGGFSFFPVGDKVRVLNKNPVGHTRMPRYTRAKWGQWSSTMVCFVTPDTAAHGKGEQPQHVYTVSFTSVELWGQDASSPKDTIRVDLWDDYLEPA
# T2 sequence (P97051 1-210): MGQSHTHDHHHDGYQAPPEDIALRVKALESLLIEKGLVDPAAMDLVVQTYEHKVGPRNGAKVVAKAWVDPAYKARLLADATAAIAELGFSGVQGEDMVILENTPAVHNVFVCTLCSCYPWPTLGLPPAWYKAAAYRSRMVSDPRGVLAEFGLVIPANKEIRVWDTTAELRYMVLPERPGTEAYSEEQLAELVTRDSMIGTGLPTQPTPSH
# [3] = target: T3, NHase-(BAP14K) (Pseudomonas putida, UniProt P97051+P97052); experiment: as above; assay type: biochemical; conditions: 20 mM 3-cyanopyridine, 10 min
# T3 construct: gene nthB; pET28a, E. coli; cobalt-loaded
# T3 sequence (P97052 1-217): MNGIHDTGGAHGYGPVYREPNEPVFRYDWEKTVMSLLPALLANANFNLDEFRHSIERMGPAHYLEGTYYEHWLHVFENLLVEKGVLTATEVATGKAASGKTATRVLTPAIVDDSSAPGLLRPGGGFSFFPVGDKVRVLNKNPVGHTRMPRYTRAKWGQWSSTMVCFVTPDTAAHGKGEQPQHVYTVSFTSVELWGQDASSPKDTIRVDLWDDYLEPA
# T3 sequence (P97051 1-210): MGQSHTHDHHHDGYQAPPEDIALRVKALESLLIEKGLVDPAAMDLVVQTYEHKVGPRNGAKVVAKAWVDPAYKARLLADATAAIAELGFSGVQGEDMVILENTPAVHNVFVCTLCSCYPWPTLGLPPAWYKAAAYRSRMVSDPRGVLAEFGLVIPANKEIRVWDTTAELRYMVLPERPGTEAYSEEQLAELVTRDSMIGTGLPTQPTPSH
# T3 sequence (O69769 1-127 partner): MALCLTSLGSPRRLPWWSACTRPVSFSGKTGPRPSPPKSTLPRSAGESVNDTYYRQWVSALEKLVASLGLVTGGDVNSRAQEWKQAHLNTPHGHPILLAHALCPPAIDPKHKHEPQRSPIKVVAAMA
# [4] = substrate: N#Cc1cccnc1; experiment: nicotinamide formation, A215; assay type: biochemical, Pseudomonas putida; conditions: 10 mM KPB, 25 °C, 2 min, 10-200 mM substrate, cobalt enzyme
# From the text: nicotinamide formation, A215 on wild-type NHase
# [5] = target: the molecule itself; experiment: SEC; purified enzymes and marker proteins on a Superdex 200 10/300 GL column, 10 mM KPB; mass from the standard curve of marker proteins, oligomer inferred from the mass
molecule,measurement,setting,value
NC(=O)c1cccnc1 [nicotinamide],reduction ratio (with / without 0.5 M nicotinamide),[1],0.80
same,reduction ratio (with / without 0.5 M nicotinamide),[2],0.86
same,reduction ratio (with / without 0.5 M nicotinamide),[3],0.83
B1,Km,[4],41.2 ± 7.7 mM
same,kcat,[4],335 ± 57.6 s⁻¹
same,kcat/Km,[4],8100 M⁻¹ s⁻¹
B2,stoichiometry N,[5],2
